Experimental data taken from patent publication US10206896B2, “Method of treating delayed healing of a wound associated with diabetes” (KUWAIT UNIVERSITY, priority 2014, dated 2019).

Legend:
[1] = system: control fibroblasts (CFs); assay: In vitro scratch wound (cell migration) in control fibroblasts; assay type: cell-based, Wistar rat; conditions: 24 hrs post-injury
Experimental: (§1) Cell culture and HP treatment. […] Assessment of key fibroblast functions essential for wound healing. To assess cell proliferation, fibroblasts were seeded into a 96-well plate at a density of 1×10^4 per well and were allowed to adhere overnight in DMEM medium supplemented with 10% FCS. After arrest by incubation in serum-free medium for 24 hours, the cells were exposed to growth factors, and the incorporation of bromodeoxyuridine (BrdU) into DNA was determined using the manufacturer's protocol (Roche Diagnostics). Similarly, for the in vitro wound (migration) experiments, cultured fibroblasts were grown in six-well plates until they reached confluence. The medium was removed, the cells were washed with PBS 3× before culturing was continued in serum-free DMEM containing 0.5% BSA for an additional 24 hours. […] The rate of wound healing was quantified as described in the literature […] Caveolin-1 protein expression and PDGF-induced phosphorylation of Akt (20 min) and ERK (10 min) in 24-hr serum starved fibroblasts were determined using a Western-blotting-based technique. A proliferation index encompassing BrdU incorporation into DNA and cell cycle progression was evaluated in response to various growth factors (e.g., IGF, 50 ng; PDGF, 1 nM; EGF, 100 ng) in 24-hr serum starved fibroblast. […]

[2] = system: control fibroblasts (CFs); assay: BrdU incorporation into DNA (cell proliferation) in control fibroblasts; assay type: cell-based, Wistar rat; conditions: 24-hr serum starved CFs, vs starved cells; dose providing the maximum response (IGF 50 ng, PDGF 1 nM, EGF 100 ng)
Experimental: as §1

B1: EGF: mitotic growth factor (protein, UniProt P01133 23-1207, looked up)
Pro-epidermal growth factor: PQHWSCPEGTLAGNGNSTCVGPAPFLIFSHGNSIFRIDTEGTNYEQLVVDAGVSVIMDFHYNEKRIYWVDLERQLLQRVFLNGSRQERVCNIEKNVSGMAINWINEEVIWSNQQEGIITVTDMKGNNSHILLSALKYPANVAVDPVERFIFWSSEVAGSLYRADLDGVGVKALLETSEKITAVSLDVLDKRLFWIQYNREGSNSLICSCDYDGGSVHISKHPTQHNLFAMSLFGDRIFYSTWKMKTIWIANKHTGKDMVRINLHSSFVPLGELKVVHPLAQPKAEDDTWEPEQKLCKLRKGNCSSTVCGQDLQSHLCMCAEGYALSRDRKYCEDVNECAFWNHGCTLGCKNTPGSYYCTCPVGFVLLPDGKRCHQLVSCPRNVSECSHDCVLTSEGPLCFCPEGSVLERDGKTCSGCSSPDNGGCSQLCVPLSPVSWECDCFPGYDLQLDEKSCAASGPQPFLLFANSQDIRHMHFDGTDYGTLLSQQMGMVYALDHDPVENKIYFAHTALKWIERANMDGSQRERLIEEGVDVPEGLAVDWIGRRFYWTDRGKSLIGRSDLNGKRSKIITKENISQPRGIAVHPMAKRLFWTDTGINPRIESSSLQGLGRLVIASSDLIWPSGITIDFLTDKLYWCDAKQSVIEMANLDGSKRRRLTQNDVGHPFAVAVFEDYVWFSDWAMPSVMRVNKRTGKDRVRLQGSMLKPSSLVVVHPLAKPGADPCLYQNGGCEHICKKRLGTAWCSCREGFMKASDGKTCLALDGHQLLAGGEVDLKNQVTPLDILSKTRVSEDNITESQHMLVAEIMVSDQDDCAPVGCSMYARCISEGEDATCQCLKGFAGDGKLCSDIDECEMGVPVCPPASSKCINTEGGYVCRCSEGYQGDGIHCLDIDECQLGEHSCGENASCTNTEGGYTCMCAGRLSEPGLICPDSTPPPHLREDDHHYSVRNSDSECPLSHDGYCLHDGVCMYIEALDKYACNCVVGYIGERCQYRDLKWWELRHAGHGQQQKVIVVAVCVVVLVMLLLLSLWGAHYYRTQKLLSKNPKNPYEESSRDVRSRRPADTEDGMSSCPQPWFVVIKEHQDLKNGGQPVAGEDGQAADGSMQPTSWRQEPQLCGMGTEQGCWIPVSSDKGSCPQVMERSFHMPSYGTQTLEGGVEKPHSLLSANPLWQQRALDPPHQMELTQ
modifications: Pro-epidermal growth factor
number of cells that migrated into the cell-free wound zone [1]: markedly increased
increase of proliferation rate (BrdU incorporation) [2]: ~7.1 fold
